Target: T1, Lingo-1-RLuc/Lingo-1-YFP dimer (Homo sapiens, UniProt Q96FE5)
T1 construct: expressed in transfected cells; host or cells: HEK-293 (transient calcium phosphate transfection)
Experiment: BRET measurement of Lingo-1 dimerization (Lingo-1-RLuc/Lingo-1-YFP) on live transfected HEK-293 cells
Format: cell-based
Settings: for BRET signal obtained between Lingo-1-RLuc and Lingo-1-YFP: HEK-293, HA-tagged construct co-expressed (800 ng), constant donor/acceptor ratio, 48 h after transfection, p<0.001 vs control
Description: For the BRET experiments, the HEK-293 cells cultured in 6-well plates, pre-treated with collagen, are transiently transfected using the calcium phosphate technique. Briefly, the plasmid DNA is mixed into a phosphate buffer (2×BBS, composed in particular of 50 mM BES (Cat No. B4554, Sigma), 280 mM NaCl, 1.5 mM Na2HPO4, adjusted to pH 6.95) with calcium chloride (2.5 M). After incubation for 15 minutes, the precipitate obtained is applied to the cells for 24 hours. The cells are then rinsed and incubated for a further 24 hours in a culture medium without antibiotics.
The cells are resuspended in a physiological buffer (HBSS for Hank's Buffered Salt Solution (Cat No. 14025100, Gibco, composed in particular of calcium chloride, magnesium chloride, magnesium sulfate, potassium chloride, monobasic potassium phosphate, sodium bicarbonate, sodium chloride, anhydrous dibasic sodium phosphate)) 48 hours after transfection and distributed into 96-well plates (100 000 to 200 000 cells per well) or into 384-well plates (20 000 to 40 000 cells per well). The fluorescence and luminescence readings are carried out at ambient temperature on a microplate reader, Mithras LB 940 (Berthold). The yield from transfection of the Lingo-1-eYFP, Lingo-2-eYFP, Lingo-3-eYFP or Lingo-4-eYFP construct is evaluated by reading the fluorescence of the eYFP emitted at 530-540 nm after excitation at 480 nm. The yield from transfection of the Lingo-1-RLuc, Lingo-2-RLuc, Lingo-3-RLuc or Lingo-4-RLuc construct is evaluated by reading the luminescence (1 second) obtained immediately after the addition of the coelenterazine substrate (5 μM).
The measurement of the BRET signal is carried out immediately after the addition of coelenterazine. […] The energy transfer which takes place in the fusion protein between the Rluc and the eYFP causes the appearance of a fluorescence signal with a maximum emission at 530-540 nm, characteristic of the spectral properties of eYFP. […]
The BRET reading was carried out at ambient temperature on a microplate reader, Mithras LB 940 (Berthold), using the new BRET filters. […]

Molecule	BRET signal obtained between Lingo-1-RLuc and Lingo-1-YFP	BRET signal obtained between the Lingo-1-RLuc and Lingo-1-YFP proteins (HEK-293, Lingo-1-RLuc 250 ng/Lingo-1-YFP 1500 ng, new filters, HA-tagged protein at 0-2600 ng plasmid)
Lingo-1-HA: whole human Lingo-1 protein (amino acids 1-620) tagged with HA (protein, left off: small tags and cut ends, whole human Lingo-1 protein (amino acids 1-620) tagged with HA) CPPRCECSAQDRAVLCHRKRFVAVPEGIPTETRLLDLGKNRIKTLNQDEFASFPHLEELELNENIVSAVEPGAFNNLFNLRTLGLRSNRLKLIPLGVFTGLSNLTKLDISENKIVILLDYMFQDLYNLKSLEVGDNDLVYISHRAFSGLNSLEQLTLEKCNLTSIPTEALSHLHGLIVLRLRHLNINAIRDYSFKRLYRLKVLEISHWPYLDTMTPNCLYGLNLTSLSITHCNLTAVPYLAVRHLVYLRFLNLSYNPISTIEGSMLHELLRLQEIQLVGGQLAVVEPYAFRGLNYLRVLNVSGNQLTTLEESVFHSVGNLETLILDSNPLACDCRLLWVFRRRWRLNFNRQQPTCATPEFVQGKEFKDFPDVLLPNYFTCRRARIRDRKAQQVFVDEGHTVQFVCRADGDPPPAILWLSPRKHLVSAKSNGRLTVFPDGTLEVRYAQVQDNGTYLCIAANAGGNDSMPAHLHVRSYSPDWPHQPNKTFAFISNQPGEGEANSTRATVPFPFDIKTLIIATTMGFISFLGVVLFCLVLLFLWSRGKGNTKHNIEIEYVPRKSDAGISSADAPRKFNMKMI	significantly decreased	
DN-Lingo-1-HA: HA-tagged dominant negative of Lingo-1 (amino acids 1-577, without cytoplasmic portion), known Lingo-1 inhibitor (protein, left off: small tags and cut ends) CPPRCECSAQDRAVLCHRKRFVAVPEGIPTETRLLDLGKNRIKTLNQDEFASFPHLEELELNENIVSAVEPGAFNNLFNLRTLGLRSNRLKLIPLGVFTGLSNLTKLDISENKIVILLDYMFQDLYNLKSLEVGDNDLVYISHRAFSGLNSLEQLTLEKCNLTSIPTEALSHLHGLIVLRLRHLNINAIRDYSFKRLYRLKVLEISHWPYLDTMTPNCLYGLNLTSLSITHCNLTAVPYLAVRHLVYLRFLNLSYNPISTIEGSMLHELLRLQEIQLVGGQLAVVEPYAFRGLNYLRVLNVSGNQLTTLEESVFHSVGNLETLILDSNPLACDCRLLWVFRRRWRLNFNRQQPTCATPEFVQGKEFKDFPDVLLPNYFTCRRARIRDRKAQQVFVDEGHTVQFVCRADGDPPPAILWLSPRKHLVSAKSNGRLTVFPDGTLEVRYAQVQDNGTYLCIAANAGGNDSMPAHLHVRSYSPDWPHQPNKTFAFISNQPGEGEANSTRATVPFPFDIKTLIIATTMGFISFLGVVLFCLV	significantly decreased	significantly decreased
